Laboratory results taken from patent US20120301468A1, “ANTI-MN ANTIBODIES AND METHODS OF USING SAME” (BAYER HEALTHCARE LLC, priority 2005, published 2012).

Target: MN (Homo sapiens, UniProt Q16790)
Assay: Surface plasmon resonance (BIAcore) binding to MN protein
Set-up: The MN protein represents the entire extra-cellular domain of the protein with a C-terminal histag for purification; His tag (C); made in house; host or cells: HKB-11 (mammalian cell line)
Conditions: soluble MN, panning-derived full-length antibodies, read-out: Affinity (Kd)
Description: The binding interactions between MN protein and the antibodies of this invention were analyzed using surface plasmon resonance technology on a BIAcore 3000 instrument (BIAcore, Uppsala, Sweden). For the binding of full-length IgGs (1e4, 1aa1, and 3ee9), goat anti-human IgG Fc was covalently coupled to the CM5 biosensor chip at high density using a standard amine coupling kit (BIAcore, Uppsala, Sweden). A capture assay was then used to bind these IgG to the anti-human IgG Fc-immobilized surface, aiming for a 300 response unit BIAcore signal. […] After ligand binding, the flow rate was then increased to 25 μl/min and various concentrations of MN analyte (e.g., range of 50 nM to 1 nM) were flowed over the surface for 10 minutes such that the association phase could be monitored. […] The binding of Fabs to MN was similarly determined except that an anti-human-Fab IgG was immobilized onto the chip and used to capture the Fabs prior to the assessment of MN binding.
Binding interactions between HKB11-expressed human MN protein and human full-length anti-MN MAbs were analyzed using surface plasmon resonance technology on a BIAcore 3000 instrument (BIAcore, Uppsala, Sweden). […] After ligand binding, flow rate was increased to 25 ul/min and MN analyte (50 nM to 1 nM) was flowed over the surface for 10 min such that the association phase could be monitored. […]

Kd: 1 nM
B1: 3a4: anti-MN antibody; CDRs SEQ ID NOS: 60, 66, 73, 108, 110, and 112 (antibody, V domains shown)
VH: QVELVESGGGLVQPGGSLRLSCAASGFTFSDYSINWVRQAPGKGLEYVSNISYSGSSTYYADSVKGRFTISRDNSKNTLYLQMNSLRAEDTAVYYCARFKYSGGSDSWGQGTLVTVSS
VL: DIELTQPPSVSVAPGQTARISCSGDNLPDFYVHWYQQKPGQAPVLVISEDNKRPSGIPERFSGSNSGNTATLTISGTQAEDEADYYCSTYGYTYSYSVFGGGTKLTVL
